In publication PMC5931990:

Target: Mouse CLIC6 CLIC domain (residues 363-597) (mouse) (UniProt Q8BHB9)
Assay: SEC; analytical gel filtration after 10 minutes with 0 to 2 mM H2O2; running buffer without reducing or oxidative agents

stoichiometry N: 2
Substance: Mouse CLIC6 CLIC domain (residues 363-597) (from UniProt Q8BHB9 363-596) (domain or fragment)
